{"source": "patent US20030229203", "key": {"[1]": {"molecular_target": "Eotaxin (UniProt P51671)", "sequence (P51671 24-97)": "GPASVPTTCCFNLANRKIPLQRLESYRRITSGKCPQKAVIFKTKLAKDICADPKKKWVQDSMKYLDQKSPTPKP"}, "[2]": {"molecular_target": "IP-10 (UniProt P02778)", "sequence (P02778 whole entry, looked up)": "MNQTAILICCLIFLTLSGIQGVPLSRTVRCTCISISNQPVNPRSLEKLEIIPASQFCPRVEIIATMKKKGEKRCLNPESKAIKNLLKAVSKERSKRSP"}, "[3]": {"molecular_target": "MCP-1 (UniProt P13500)", "sequence (P13500 whole entry, looked up)": "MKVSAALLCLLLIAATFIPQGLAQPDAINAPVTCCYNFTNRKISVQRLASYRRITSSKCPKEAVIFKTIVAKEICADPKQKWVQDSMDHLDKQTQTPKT"}, "[4]": {"molecular_target": "MCP-2 (UniProt P80075)", "sequence (P80075 24-99)": "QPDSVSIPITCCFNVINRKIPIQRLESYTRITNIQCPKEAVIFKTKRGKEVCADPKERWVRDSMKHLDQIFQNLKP"}, "[5]": {"molecular_target": "RANTES(1-68) (UniProt P13501)", "sequence (P13501 24-91)": "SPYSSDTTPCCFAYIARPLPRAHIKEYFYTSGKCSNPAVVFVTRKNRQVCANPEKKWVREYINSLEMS"}}}
{"substance": "enzymatically active (E+) recombinant soluble human CD26 (sCD26)", "values": [{"measurement": "CD26 cleavage (ES-MS after overnight digestion with sCD26)", "setting": "[1]", "result": "Yes"}, {"measurement": "CD26 cleavage (ES-MS after overnight digestion with sCD26)", "setting": "[2]", "result": "Yes"}, {"measurement": "CD26 cleavage (ES-MS after overnight digestion with sCD26)", "setting": "[3]", "result": "No"}, {"measurement": "CD26 cleavage (ES-MS after overnight digestion with sCD26)", "setting": "[4]", "result": "Yes"}, {"measurement": "hydrolysis of rhRANTES by sCD26 (ES-MS of cleavage products)", "setting": "[5]", "result": "100 nM rhRANTES underwent partial to complete hydrolysis when incubated overnight at 37 °C with increasing amounts (25 to 250 (U) of sCD26"}]}
